B1: Compound No. 38 (Pal-MGYQKKLRSMTDKYRL-amide) (peptide)
peptide: Palmitoyl-MGYQKKLRSMTDKYRL-NH2
SMILES: CCCCCCCCCCCCCCCC(=O)N[C@@H](CCSC)C(=O)NCC(=O)N[C@@H](Cc1ccc(O)cc1)C(=O)N[C@@H](CCC(N)=O)C(=O)N[C@@H](CCCCN)C(=O)N[C@@H](CCCCN)C(=O)N[C@@H](CC(C)C)C(=O)N[C@@H](CCCNC(=N)N)C(=O)N[C@@H](CO)C(=O)N[C@@H](CCSC)C(=O)N[C@H](C(=O)N[C@@H](CC(=O)O)C(=O)N[C@@H](CCCCN)C(=O)N[C@@H](Cc1ccc(O)cc1)C(=O)N[C@@H](CCCNC(=N)N)C(=O)N[C@@H](CC(C)C)C(N)=O)[C@@H](C)O
B2: CXCR4 i1 loop compound 135 (peptide)
peptide: Palmitoyl-MGYQKKARSMTDKYRL-NH2
SMILES: CCCCCCCCCCCCCCCC(=O)N[C@@H](CCSC)C(=O)NCC(=O)N[C@@H](Cc1ccc(O)cc1)C(=O)N[C@@H](CCC(N)=O)C(=O)N[C@@H](CCCCN)C(=O)N[C@@H](CCCCN)C(=O)N[C@@H](C)C(=O)N[C@@H](CCCNC(=N)N)C(=O)N[C@@H](CO)C(=O)N[C@@H](CCSC)C(=O)N[C@H](C(=O)N[C@@H](CC(=O)O)C(=O)N[C@@H](CCCCN)C(=O)N[C@@H](Cc1ccc(O)cc1)C(=O)N[C@@H](CCCNC(=N)N)C(=O)N[C@@H](CC(C)C)C(N)=O)[C@@H](C)O
B3: CXCR4 i1 loop compound 129 (peptide)
peptide: Palmitoyl-AGYQKKLRSMTDKYRL-NH2
SMILES: CCCCCCCCCCCCCCCC(=O)N[C@@H](C)C(=O)NCC(=O)N[C@@H](Cc1ccc(O)cc1)C(=O)N[C@@H](CCC(N)=O)C(=O)N[C@@H](CCCCN)C(=O)N[C@@H](CCCCN)C(=O)N[C@@H](CC(C)C)C(=O)N[C@@H](CCCNC(=N)N)C(=O)N[C@@H](CO)C(=O)N[C@@H](CCSC)C(=O)N[C@H](C(=O)N[C@@H](CC(=O)O)C(=O)N[C@@H](CCCCN)C(=O)N[C@@H](Cc1ccc(O)cc1)C(=O)N[C@@H](CCCNC(=N)N)C(=O)N[C@@H](CC(C)C)C(N)=O)[C@@H](C)O
B4: CXCR4 i1 loop compound 161 (peptide)
peptide: Palmitoyl-MGYQKKLRSMTDK[dY]RL-NH2
B5: CXCR4 i1 loop compound 134 (peptide)
peptide: Palmitoyl-MGYQKALRSMTDKYRL-NH2
SMILES: CCCCCCCCCCCCCCCC(=O)N[C@@H](CCSC)C(=O)NCC(=O)N[C@@H](Cc1ccc(O)cc1)C(=O)N[C@@H](CCC(N)=O)C(=O)N[C@@H](CCCCN)C(=O)N[C@@H](C)C(=O)N[C@@H](CC(C)C)C(=O)N[C@@H](CCCNC(=N)N)C(=O)N[C@@H](CO)C(=O)N[C@@H](CCSC)C(=O)N[C@H](C(=O)N[C@@H](CC(=O)O)C(=O)N[C@@H](CCCCN)C(=O)N[C@@H](Cc1ccc(O)cc1)C(=O)N[C@@H](CCCNC(=N)N)C(=O)N[C@@H](CC(C)C)C(N)=O)[C@@H](C)O
B6: CXCR4 i1 loop compound 133 (peptide)
peptide: Palmitoyl-MGYQAKLRSMTDKYRL-NH2
SMILES: CCCCCCCCCCCCCCCC(=O)N[C@@H](CCSC)C(=O)NCC(=O)N[C@@H](Cc1ccc(O)cc1)C(=O)N[C@@H](CCC(N)=O)C(=O)N[C@@H](C)C(=O)N[C@@H](CCCCN)C(=O)N[C@@H](CC(C)C)C(=O)N[C@@H](CCCNC(=N)N)C(=O)N[C@@H](CO)C(=O)N[C@@H](CCSC)C(=O)N[C@H](C(=O)N[C@@H](CC(=O)O)C(=O)N[C@@H](CCCCN)C(=O)N[C@@H](Cc1ccc(O)cc1)C(=O)N[C@@H](CCCNC(=N)N)C(=O)N[C@@H](CC(C)C)C(N)=O)[C@@H](C)O
B7: CXCR4 i1 loop compound 130 (peptide)
peptide: Palmitoyl-MAYQKKLRSMTDKYRL-NH2
SMILES: CCCCCCCCCCCCCCCC(=O)N[C@@H](CCSC)C(=O)N[C@@H](C)C(=O)N[C@@H](Cc1ccc(O)cc1)C(=O)N[C@@H](CCC(N)=O)C(=O)N[C@@H](CCCCN)C(=O)N[C@@H](CCCCN)C(=O)N[C@@H](CC(C)C)C(=O)N[C@@H](CCCNC(=N)N)C(=O)N[C@@H](CO)C(=O)N[C@@H](CCSC)C(=O)N[C@H](C(=O)N[C@@H](CC(=O)O)C(=O)N[C@@H](CCCCN)C(=O)N[C@@H](Cc1ccc(O)cc1)C(=O)N[C@@H](CCCNC(=N)N)C(=O)N[C@@H](CC(C)C)C(N)=O)[C@@H](C)O
B8: CXCR4 i1 loop compound 170 (peptide)
peptide: Palmitoyl-MGYQKK[dL]RSMTDKYRL-NH2
B9: CXCR4 i1 loop compound 136 (peptide)
peptide: Palmitoyl-MGYQKKLASMTDKYRL-NH2
SMILES: CCCCCCCCCCCCCCCC(=O)N[C@@H](CCSC)C(=O)NCC(=O)N[C@@H](Cc1ccc(O)cc1)C(=O)N[C@@H](CCC(N)=O)C(=O)N[C@@H](CCCCN)C(=O)N[C@@H](CCCCN)C(=O)N[C@@H](CC(C)C)C(=O)N[C@@H](C)C(=O)N[C@@H](CO)C(=O)N[C@@H](CCSC)C(=O)N[C@H](C(=O)N[C@@H](CC(=O)O)C(=O)N[C@@H](CCCCN)C(=O)N[C@@H](Cc1ccc(O)cc1)C(=O)N[C@@H](CCCNC(=N)N)C(=O)N[C@@H](CC(C)C)C(N)=O)[C@@H](C)O
B10: CXCR4 i1 loop compound 153 (peptide)
peptide: Palmitoyl-MGYQKKLRSMTDKYRA-NH2
SMILES: CCCCCCCCCCCCCCCC(=O)N[C@@H](CCSC)C(=O)NCC(=O)N[C@@H](Cc1ccc(O)cc1)C(=O)N[C@@H](CCC(N)=O)C(=O)N[C@@H](CCCCN)C(=O)N[C@@H](CCCCN)C(=O)N[C@@H](CC(C)C)C(=O)N[C@@H](CCCNC(=N)N)C(=O)N[C@@H](CO)C(=O)N[C@@H](CCSC)C(=O)N[C@H](C(=O)N[C@@H](CC(=O)O)C(=O)N[C@@H](CCCCN)C(=O)N[C@@H](Cc1ccc(O)cc1)C(=O)N[C@@H](CCCNC(=N)N)C(=O)N[C@@H](C)C(N)=O)[C@@H](C)O
B11: CXCR4 i1 loop compound 160 (peptide)
peptide: Palmitoyl-MGYQKKLRSMTDKY[dR]L-NH2
B12: CXCR4 i1 loop compound 162 (peptide)
peptide: Palmitoyl-MGYQKKLRSMTD[dK]YRL-NH2
B13: CXCR4 i1 loop compound 164 (peptide)
peptide: Palmitoyl-MGYQKKLRSM[dT]DKYRL-NH2
B14: CXCR4 i1 loop compound 163 (peptide)
peptide: Palmitoyl-MGYQKKLRSMT[dD]KYRL-NH2
B15: CXCR4 i1 loop compound 171 (peptide)
peptide: Palmitoyl-MGYQKKL[dR]SMTDKYRL-NH2
B16: CXCR4 i1 loop compound 169 (peptide)
peptide: Palmitoyl-MGYQK[dK]LRSMTDKYRL-NH2
B17: CXCR4 i1 loop compound 131 (peptide)
peptide: Palmitoyl-MGAQKKLRSMTDKYRL-NH2
SMILES: CCCCCCCCCCCCCCCC(=O)N[C@@H](CCSC)C(=O)NCC(=O)N[C@@H](C)C(=O)N[C@@H](CCC(N)=O)C(=O)N[C@@H](CCCCN)C(=O)N[C@@H](CCCCN)C(=O)N[C@@H](CC(C)C)C(=O)N[C@@H](CCCNC(=N)N)C(=O)N[C@@H](CO)C(=O)N[C@@H](CCSC)C(=O)N[C@H](C(=O)N[C@@H](CC(=O)O)C(=O)N[C@@H](CCCCN)C(=O)N[C@@H](Cc1ccc(O)cc1)C(=O)N[C@@H](CCCNC(=N)N)C(=O)N[C@@H](CC(C)C)C(N)=O)[C@@H](C)O
B18: CXCR4 i1 loop compound 167 (peptide)
peptide: Palmitoyl-MGY[dQ]KKLRSMTDKYRL-NH2
B19: CXCR4 i1 loop compound 132 (peptide)
peptide: Palmitoyl-MGYAKKLRSMTDKYRL-NH2
SMILES: CCCCCCCCCCCCCCCC(=O)N[C@@H](CCSC)C(=O)NCC(=O)N[C@@H](Cc1ccc(O)cc1)C(=O)N[C@@H](C)C(=O)N[C@@H](CCCCN)C(=O)N[C@@H](CCCCN)C(=O)N[C@@H](CC(C)C)C(=O)N[C@@H](CCCNC(=N)N)C(=O)N[C@@H](CO)C(=O)N[C@@H](CCSC)C(=O)N[C@H](C(=O)N[C@@H](CC(=O)O)C(=O)N[C@@H](CCCCN)C(=O)N[C@@H](Cc1ccc(O)cc1)C(=O)N[C@@H](CCCNC(=N)N)C(=O)N[C@@H](CC(C)C)C(N)=O)[C@@H](C)O
B20: CXCR4 i1 loop compound 173 (peptide)
peptide: Palmitoyl-MGYQKKLRS[dM]TDKYRL-NH2
B21: CXCR4 i1 loop compound 159 (peptide)
peptide: Palmitoyl-MGYQKKLRSMTDKYR[dL]-NH2
B22: CXCR4 i1 loop compound 168 (peptide)
peptide: Palmitoyl-MGYQ[dK]KLRSMTDKYRL-NH2
B23: CXCR4 i1 loop compound 165 (peptide)
peptide: Palmitoyl-[dM]GYQKKLRSMTDKYRL-NH2
B24: CXCR4 i1 loop compound 172 (peptide)
peptide: Palmitoyl-MGYQKKLR[dS]MTDKYRL-NH2
B25: CXCR4 i1 loop compound 166 (peptide)
peptide: Palmitoyl-MG[dY]QKKLRSMTDKYRL-NH2

Square brackets hold non-standard residues; d marks the D form. * marks the point of attachment. Palmitoyl = CCCCCCCCCCCCCCCC(=O)*

For one assay, the target named is T1, CXCR4 receptor (human, UniProt P61073 1-352). Description: cell-based or functional assay.
T1 sequence (P61073 whole entry): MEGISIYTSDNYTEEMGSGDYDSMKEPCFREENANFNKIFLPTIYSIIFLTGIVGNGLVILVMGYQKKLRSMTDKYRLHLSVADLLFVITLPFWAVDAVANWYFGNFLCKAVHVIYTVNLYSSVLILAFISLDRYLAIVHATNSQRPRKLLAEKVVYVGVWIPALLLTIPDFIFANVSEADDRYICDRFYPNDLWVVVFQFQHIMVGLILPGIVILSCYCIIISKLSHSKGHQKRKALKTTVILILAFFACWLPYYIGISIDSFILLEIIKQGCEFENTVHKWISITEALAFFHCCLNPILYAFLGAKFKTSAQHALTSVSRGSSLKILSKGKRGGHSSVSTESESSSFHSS
With B1, the “AUC (% of), CHTX, SUP B-15, 1.0 uM” value was 32.4%; the “Max (% of), CHTX, SUP B-15, 1.0 uM” value was found to be 49.6%; the “Peak Ratio, CHTX, CEM, 1.0 uM” value was found to be 0.2; the “Peak Ratio, CHTX, SUP B-15, 1.0 uM” value worked out at 0.2.

A further assay addresses T1, CXCR4 receptor. The experiment in a line: cell-based or functional assay. The source holds these as a separate data set.
Consider B2, for which the “IC50 (nM), calcium flux, CCRF-CEM” value was 175 nM.
As for B3, the “IC50 (nM), calcium flux, CCRF-CEM” value was found to be 197 nM.
Same read-out and setting: as for B4, the figure is greater than 10000 nM; as for B5, 250 nM.
The same measure, in the same setting: with B6 the figure was 200 nM; with B7, 125 nM.
Take B8: the “IC50 (nM), calcium flux, CCRF-CEM” value was determined as 72 nM.
As to B9, the “IC50 (nM), calcium flux, CCRF-CEM” value was found to be 302 nM.
For the molecule B10, the “IC50 (nM), calcium flux, CCRF-CEM” value was greater than 10000 nM.
Same read-out and setting: with B11 the figure was 5730 nM; with B12, 291 nM.
Turning to B13, the “IC50 (nM), calcium flux, CCRF-CEM” value came out at 322 nM.
On to B14, for which the “IC50 (nM), calcium flux, CCRF-CEM” value is 623 nM.
As for B15, the “IC50 (nM), calcium flux, CCRF-CEM” value is 72 nM.
On to B16, for which the “IC50 (nM), calcium flux, CCRF-CEM” value is 88 nM.
As to B17, the “IC50 (nM), calcium flux, CCRF-CEM” value came out at 147 nM.
Take B18: the “IC50 (nM), calcium flux, CCRF-CEM” value came out at 116 nM.
As for B19, the “IC50 (nM), calcium flux, CCRF-CEM” value is 213 nM.
For the molecule B20, the “IC50 (nM), calcium flux, CCRF-CEM” value stood at 97 nM.
For B21, the “IC50 (nM), calcium flux, CCRF-CEM” value was greater than 10000 nM.
On the same count and under the same terms, with B22 the figure was 119 nM; with B23, 112 nM.
Still for that read-out and setting: with B1 the figure was 98 nM.
Same read-out and setting: as for B24, the figure is 90 nM; as for B25, 129 nM.

Source of the values: patent US20130210709A1 (ANCHOR THERAPEUTICS, published 2013).
